Measurements as given in publication PMC6825541.

Target: recombinant Ebola virus (EBOV) glycoprotein (Zaire ebolavirus (EBOV)) (UniProt Q05320)
Assay: SEC

“recombinant Ebola virus (EBOV) glycoprotein (from UniProt Q05320) (natural protein)” gave a stoichiometry N of 3.
